Measured values reported in patent US20020001806A1, “Caspase-3s splicing variant” (priority 2000, published 2002).
Entries after “also recorded” stand apart in the source; their conditions may differ.

B1: caspase-3s: novel splicing variant of caspase-3, C-terminal truncated, 182 amino acids (SEQ ID No. 2); tested as transfected pcDNA3 cDNA construct (protein, listed as Homo sapiens)
chain: MENTENSVDSKSIKNLEPKIIHGSESMDSGISLDNSYKMDYPEMGLCIIINNKNFHKSTGMTSRSGTDVDAANLRETFRNLKYEVRNKNDLTREEIVELMRDVSKEDHSKRSSFVCVLLSHGEEGIIFGTNGPVDLKKITNFFRGDRCRSLTGKPKLFIIQVIILGEIQRMAPGSSSRFVPC
B2: caspase-3: full length caspase-3 (32 kDa) cDNA in pcDNA3 vector transfected into 293 cells (protein, UniProt P42574 1-277, looked up)
chain: MENTENSVDSKSIKNLEPKIIHGSESMDSGISLDNSYKMDYPEMGLCIIINNKNFHKSTGMTSRSGTDVDAANLRETFRNLKYEVRNKNDLTREEIVELMRDVSKEDHSKRSSFVCVLLSHGEEGIIFGTNGPVDLKKITNFFRGDRCRSLTGKPKLFIIQACRGTELDCGIETDSGVDDDMACHKIPVEADFLYAYSTAPGYYSWRNSKDGSWFIQSLCAMLKQYADKLEFMHILTRVNRKVATEFESFSFDATFHAKKQIPCIVSMLTKELYFYH
modifications: full-length
notes: full length caspase-3 (32 kDa) cDNA in pcDNA3 vector transfected into 293 cells

What was measured:
Type in all cases: cell-based, human
endogenous caspase-3 = experiment: Western blot (anti-caspase-3) of endogenous caspase-3 in untransfected 293 cells after IGAL treatment; conditions: 5 μM IGAL, 48 hours
Protocol: (§1) FIG. 6. A. 293 cells were transfected with flag-tagged caspase-3, flag-tagged caspase-3s or pcDNA3 vector, followed by IGAL treatment for 16 hours or left untreated (control). Fifty microgram of total cellular protein was assayed for caspase-3 and caspase-3s expression using antibody specific for flag-tag. The asterisk (*) indicates the N-terminal flag-tag containing activated capase-3 (20 kDa). The uppermost and lowest short arrow denote the two additional bands, 40 kDa and 14 kDa, respectively. […] 293 cells were treated with 5 μM IGAL for 48 hours. Total cell lysates were isolated and assayed for caspase-3 expression by Western blotting. The blot was probed with anticaspase-3 antibody (Pharmingen). […]
Evidence that the levels of endogenous caspase-3 and caspase-3s are regulated by proteasome degradation was also sought. Untransfected 293 cells were subjected to IGAL treatment and the cell samples were analyzed on Western blots probed with anticapase-3 antibody (Pharmingen). […] In parallel, a faint immunoreactive band of 20 kDa (p20) was detected only in the presence of IGAL treatment (FIG. 6B).

[1] = test system: caspase-3 and caspase-3s expression; experiment: Western blot (anti-flag) of recombinant caspase-3 and caspase-3s in transfected 293 cells after IGAL treatment; conditions: IGAL treatment 16 hours
Protocol: as §1
Proteasome appears to regulate caspase-3 potentially in two ways. […] To examine the effects of proteasome inhibitor on the expression of caspase-3 and caspase-3s, total cellular protein from transfected 293 cells treated with proteasome inhibitor IGAL were analyzed by Western blotting probed with the N-terminal antiflag antibody. […] In addition, we reproducibly detected two additional bands with a size of 40 kDa and 14 kDa, respectively, after IGAL treatment (FIG. 6B, lane 6). […]

293 cells [2] = experiment: DNA fragmentation ELISA (Cell Death Detection ELISA) in transfected 293 cells; conditions: for apoptosis induced by staurosporine (DNA fragmentation): 0.5 μM staurosporine, 20 hours; for DNA fragmentation (basal apoptosis): untreated, vs vector and caspase-3s
Protocol: (§2) Human embryonal kidney 293 cells were seeded 1×10^5 into each well of a 24-well plate and transfected with caspase-3 and caspase-3s cDNA constructs by calcium phosphate method (Sun Y., Bian J., Wang Y., Jacobs C. Oncogene 1997;14:385-93;14: 385-393). Briefly, 500 nanogram of DNA was incubated in 0.25 M CaCl2 solution for 10 minutes at room temperature. The mixture was then incubated with 1×HEPES buffer (pH 6.88) for 15 minutes at room temperature before being added to the culture medium. After 6 to 7 hours transfection, transfection medium was replaced with fresh Opti-MEMI medium (GIBCO) containing 5 μM of Proteasome Inhibitor I (Z-Ile-Glu(otBu)-Ala-Leu-CHO) (Calbiochem) and incubated for 16 hours. For staurosporine treatment, cells were allowed to grow for 24 hours in serum containing medium after transfection. Cells then incubated with 0.5 μM staurosporine (Calbiochem) in Opti-MEMI medium for 20 hours.
DNA fragmentation ELISA was performed using the Cell Death Detection ELISA kit (Boehringer Mannheim) following the instruction provided by the supplier. Briefly, after 16 hours treatment with IGAL (Proteasome Inhibitor I), 293 cells were lysed by incubation with 500 μL of cell lysis buffer for 2 hours at room temperature. The lysate were then centrifuged at 200×g for 10 minutes. Twenty microliter of the supernatant were transferred into the streptavidin coated microtiter plate for analysis using the reagents provided with the assay kit. Statistical analyses were performed with student t-test using Microsoft Excel analysis tools.

PARP = PARP cleavage to 85 kDa breakdown product by Western blot in transfected 293 cells; conditions: for PARP cleavage (Western blot): IGAL treatment 16 hours, vs vector control; for PARP breakdown product (85 kDa), densitometric quantification: normalized to vector control, n=8
Protocol: as §2
Preparation of whole cell lysates and Western blotting were performed as previously described (McGinnis K. M., Gnegy M. E., Wang K. K. W. Endogenous bax translocation in SH-SY5Y human neuroblastoma cells and cerebellar granule neurons undergoing apoptosis. J. Neurochem. 1999;72:1899-1906; Huang Y., Domann F. E. Transcription factor AP-2 mRNA and DNA binding activity are constitutively expressed in SV40-immortalized but not normal human lung fibroblasts. Arch. Biochem. Biophys. 1999;364: 241-246). The blots were probed with antihuman caspase-3 p20 goat polyclonal antibody (Santa Cruz, CAT #sc-1226), antihuman caspase-3 rabbit polyclonal antibody (Pharmingen, CAT #65906E), antiflag monoclonal antibody (Sigma, CAT #F3165), or antihuman monoclonal PAPR antibody (Biomol Research Laboratories, Inc CAT #SA-250).
It is known that cleavage of caspase-3 substrates, such as poly(ADP)ribose polymerase (PARP), is prerequisite for apoptosis. Therefore, the effects of caspase-3s overexpression on PARP cleavage in both control and IGAL treated 293 was examined, along with caspase-3 overexpression as positive control. Cleavage of PARP to an immunoreactive breakdown product (85 kDa) was measured by Western blot.

293 cells [3] = experiment: Cytotox 96 colorimetric LDH release cytotoxicity assay in transfected 293 cells; conditions: for apoptosis / cell death (LDH release) induced by proteasome inhibitor I: 5 μM proteasome inhibitor I, 12 hours, vs vector
Protocol: The following experiments were performed to test the hypothesis that caspase-3s acts as a dominant negative isoform of caspase-3. The pcDNA empty vector, caspase-3, and caspase-3s constructs were transfected into 293 cells using the method described above (Sun et al., Supra., 1997). After 6 to 7 hours transfection, transfection medium was replaced with fresh medium containing 5 μM of proteasome inhibitor I (Z-Ile-Glu(otBu)-Ala-Leu-CHO) (Calbiochem). Cells were then incubated for 12 hours. Twenty-five microliter of the culture medium was subjected to cytotoxicity assay using the Cytotox 96 colorimetric LDH assay kit (Promega) according to manufacturer's instruction. Statistics were performed with t-test using Microsoft Excel analysis tools.
For control cells, lactate dehydrogenase (LDH) release in caspase-3 transfected cells was compared with both vector and caspase-3s transfected cells. For proteasome inhibitor treated cells, LDH release was compared between vector and caspase-3s transfected cells.

Molecule | endogenous activated caspase-3 (p17) (endogenous caspase-3) | levels of endogenous full-length caspase-3 (p32) (endogenous caspase-3) | amount of recombinant caspase-3s ([1]; flag-tagged caspase-3s transfected 293 cells) | abundance of recombinant full length caspase-3 (32 kDa band) ([1]; flag-tagged caspase-3 transfected 293 cells) | apoptosis induced by staurosporine (DNA fragmentation) (293 cells [2]) | DNA fragmentation (apoptosis) induced by IGAL (293 cells [2]; 5 μM IGAL, 16 hours, vs vector control and caspase-3, n=4) | PARP cleavage (Western blot) (PARP) | PARP cleavage (Western blot) (PARP; listed as Caspase-3s) | PARP breakdown product (85 kDa), densitometric quantification (PARP) | apoptosis / cell death (LDH release) induced by proteasome inhibitor I (293 cells [3]) | apoptosis / cell death (LDH release) induced by proteasome inhibitor I (293 cells [3]; listed as Caspase-3s) | DNA fragmentation (basal apoptosis) (293 cells [2]) | DNA fragmentation (basal apoptosis) (293 cells [2]; listed as capase-3) | basal PARP cleavage (Western blot) (PARP; nontreated) | apoptosis (LDH release) (293 cells [3]; untreated condition, vs vector and caspase-3s transfected cells)
Z-Ile-Glu(otBu)-Ala-Leu-CHO [IGAL] | appearance of the 17 kDa activated caspase-3 (p17) | remain the same; also recorded: stabilized endogenous caspase-3 expression | dramatic increase | decrease in the abundance |  |  |  |  |  |  |  |  |  |  | 
B1 |  |  |  |  | no significant effect | partially but significantly inhibited apoptosis; also recorded: significantly (# p<0.05) inhibited DNA fragmentation | partially but significantly inhibited the cleavage of PARP | partially inhibited PARP cleavage | significantly decreased | significantly inhibited; also recorded: inhibits apoptotic cell death | inhibits cell death |  |  |  | 
B2 |  |  |  |  | did not reduce |  | enhanced by IGAL treatment |  | increased PARP cleavage | underwent substantial apoptosis |  | significantly increased DNA fragmentation | induced basal apoptosis | increased basal PARP cleavage | significantly increased apoptosis
